According to US20240150473A1, “MODULATION OF WNT SIGNALING IN GASTROINTESTINAL DISORDERS” (Surrozen Operating, Inc., priority 2021, published 2024):

Columns and labels:
[1] = test system: Mouse small intestinal organoids; test: Organoid culture and proliferation assay; type: cell-based; conditions: organoids treated with Porcupine inhibitor IWP2
Experimental: Mouse small intestinal organoids were maintained in mouse IntestiCult™ Organoid Growth Medium ([…] technologies) and passaged once a week until the date of assay for Wnt mimetic activity (H. Chen, Lu, Lee, & Li, 2020). To assay for organoid proliferation, organoids were dissociated with Gentle Cell Dissociation Reagent ([…] technologies) for 10 min with shaking, washed 2× in cold PBS (Gibco) and resuspended 1:1 in Matrigel (Corning) on ice. 25 ul of cell resuspension in Matrigel was seeded to the center of each well on a prewarmed 48-well tissue culture plate and let solidify for 5 min at 37 degrees. 300 ul of Basal Media (Table 10), Basal Media+IWP2+anti-βGal or Basal Media+IWP2+Wnt mimetic was applied to the wells. Each condition included 5-6 repeats. Media and treatments were changed once on Day 4 after plating. Images of the 3D cultured organoids were acquired on Day 7.
Mouse small intestinal organoids were treated with the Porcupine inhibitor IWP2 to inhibit endogenous Wnt ligand secretion in the cultured organoid. When these organoids were subject to no protein treatment or were treated with a control anti-β-gal IgG, the organoids were not maintained and quickly degenerated.

[2] = test system: DSS induced acute colitis in C57BL6/J mice; test: DSS induced acute colitis model; type: in vivo, mouse; conditions: two doses day 4 and day 7, evaluated day 10
Experimental: 7- to 8-week-old female C57BL6/J mice were fed with 4% (wt/vol) Dextran Sulfate Sodium (DSS, MP Biomedicals, molecular weight 36-50 kDa, Ref #160110) in drinking water from day 1 to day 7 to induce colitis and were switched to 1% DSS from day 8. […] Animals were terminated on day 10, allowing a 6-day course of protein treatment, and the colon was harvested for histology and RT-qPCR. […] The disease activity index (DAI) was calculated based on the average score of weight loss, stool consistency and the degree of intestinal bleeding (Wirtz Stefan et al., 2017). Scoring system by grading was on a scale of 0 to 4 using the following parameters: loss of weight (0, 0-1%; 1, 1-6%; 2, 6-12%; 3, 12-18%; 4, >18%), stool consistency (0, normal; 1, soft but still formed; 2, soft; 3, very soft, wet; 4, watery diarrhea) and intestine bleeding (0-1, negative hemoccult; 2, positive hemoccult; 3, blood traces in stool visible; 4, gross rectal bleeding).
Small intestine and colon were extracted and, after removing fecal content, weighted and length measured. The desired small intestine segments (duodenum, jejunum, ileum) and colon segments (ascending, transverse and descending colon) were cut out and fixed directly in 10% neutral buffered formalin (NBF) overnight. Tissues were then transferred to 70% ethanol before paraffin embedding. Paraffin tissue blocks were then sectioned to […] thickness and stained with hematoxylin and eosin (H&E) for histology analysis. Pathology reading was performed by an independent pathologist.
[…] Groups of mice were either untreated, treated with an isotype control antibody (anti-GFP), or treated with the indicated engineered Wnt agonist once on day 4 or twice on day 4 and 7. […]
The 123 mice total were grouped: (Day3=13, day4=13, day5=26, day6=24, day7=26, day10=21), with 91 used for histology endpoints, and 21 for scRNA-seq (group eliminated because of machinery). Daily food intake, BW, fecal score, and occult blood were measured. […]

[3] = test system: colon tissue markers (ZO-1, Ki67, Axin2, Cdkn3, S100A9, CD45); test: RNA in situ hybridization and immunohistochemistry/immunofluorescence of colon tissue, DSS model; type: in vivo, mouse; conditions: day 10 of the DSS model
Text: Expression of mRNA was detected by RNAscope in situ hybridization (ACD Bio). RNAscope probes used are listed below. For colorimetric visualization, standard RNAscope® 2.5 HD Assay-Red protocol (www.acdbio.com) was followed, and images were acquired on a Leica DMi8 microscope equipped with a DFC7000T color camera. For fluorescent RNAscope in situ hybridization, standard RNAscope Multiplex Fluorescent Reagent Kit v2 Assay protocol was followed (ACD Bio Document #323100-USM) and coupled with the TSA Plus Cyanine 3 and 5 Systems. Fluorescent images were acquired with a Leica Thunder imaging system.
In brief, five-micron thick formalin fixed paraffin embedded tissue sections on slides were deparaffinized followed by citrate buffer (pH 6) antigen retrieval in a steamer. Slides were then washed thoroughly in tap water followed by 1× wash in PBST. Subsequently, tissue sections were blocked with serum free protein block (Agilent, X090930-2) for one hour at room temperature followed by incubation in primary antibodies. After primary antibody incubation, tissue sections were washed in 0.1% TX-100 in PBS (PBST) at least three times followed by incubation in secondary antibody. Afterwards, tissue sections were washed with PBST, and coverslips were mounted with Vectashield Vibrance antifade mounting medium with DAPI (Vector Laboratories, H-1800).

B1: R2M3-26: Fzd1,2,5,7,8 pan specific Wnt mimetic targeting FZD1,2,5,7,8 and LRP6 (protein)
light: DVQLVESGGGLVQAGGSLRLACAGSGRIFAIYDIAWYRHPPGNQRELVAMIRPVVTEIDYADSVKGRFTISRNNAMKTVYLQMNNLKPEDTAVYYCNAKRPWGSRDEYWGQGTQVTVSSGSGSGQAVVLQEPSLSVSPGGTVTLTCGLSSGSVSTNYYPSWYQQTPGQAPRTLIYYTNTRSSDVPERFSGSIVGNKAALTITGAQPDDESVYFCLLYLGRGIWVFGGGTKLTVLGQPKAAPSVTLFPPSSEELQANKATLVCLISDFYPGAVTVAWKADSSPVKAGVETTTPSKQSNNKYAASSYLSLTPEQWKSHRSYSCQVTHEGSTVEKTVAPTECS
heavy: EVQLVQSGAEVKKPGASVKVSCKASGYTFTSYGISWVRQAPGQGLEWMGWISAYNGNTNYAQKLQGRVTMTTDTSTSTAYMELRSLRSDDTAVYYCASSKEKATYYYGMDVWGQGTTVTVSSASTKGPSVFPLAPSSKSTSGGTAALGCLVKDYFPEPVTVSWNSGALTSGVHTFPAVLQSSGLYSLSSVVTVPSSSLGTQTYICNVNHKPSNTKVDKKVEPKSCDKTHTCPPCPAPEAAGGPSVFLFPPKPKDTLMISRTPEVTCVVVDVSHEDPEVKFNWYVDGVEVHNAKTKPREEQYNSTYRVVSVLTVLHQDWLNGKEYKCKVSNKALGAPIEKTISKAKGQPREPQVYTLPPSREEMTKNQVSLTCLVKGFYPSDIAVEWESNGQPENNYKTTPPVLDSDGSFFLYSKLTVDKSRWQQGNVFSCSVMHEALHNHYTQKSLSLSPGK
B1 was tested, and the “organoid proliferation and growth” value [1] was “able to stimulate cell proliferation”, the “histology (colitis) score” value ([2]; reduced from 4.75, see WO 2020/185960A1) was 2.0 and the “crypt architecture and tissue inflammation” value ([2]; versus PBS or anti-GFP) was “restored crypt architecture with less tissue inflammation”. For the same molecule, the “Ki67 expression in duodenum and colon” value [3] was “did not lead to an expansion of Ki67”.
